Test results published in patent US20250154198A1, “PEPTIDE INHIBITORS OF INTERLEUKIN-23 RECEPTOR” (Zealand Pharma A/S, priority 2021, published 2025).
Like-named read-outs stand apart in the source and are kept apart here. *1 amine or outer side, *2 acyl side, *3 side chain or, on linkers, in order; H or OH if unused. Bridges are numbered along the chain shown (N, C = ends). [ ]: non-standard residue; d: D form. 2Nal = N[C@@H](Cc1ccc2ccccc2c1)C(=O)O; CH2COCH2 = O=C(C[*:1])C[*:2]; 3Amb = NCc1cccc(C(=O)O)c1

Key:
[1] = target: T1, human IL-23R endogenously expressed on DB cells (CRL-2289) (human, UniProt Q5VWK5 24-629); experiment: cell-based or functional assay
T1 sequence (looked up): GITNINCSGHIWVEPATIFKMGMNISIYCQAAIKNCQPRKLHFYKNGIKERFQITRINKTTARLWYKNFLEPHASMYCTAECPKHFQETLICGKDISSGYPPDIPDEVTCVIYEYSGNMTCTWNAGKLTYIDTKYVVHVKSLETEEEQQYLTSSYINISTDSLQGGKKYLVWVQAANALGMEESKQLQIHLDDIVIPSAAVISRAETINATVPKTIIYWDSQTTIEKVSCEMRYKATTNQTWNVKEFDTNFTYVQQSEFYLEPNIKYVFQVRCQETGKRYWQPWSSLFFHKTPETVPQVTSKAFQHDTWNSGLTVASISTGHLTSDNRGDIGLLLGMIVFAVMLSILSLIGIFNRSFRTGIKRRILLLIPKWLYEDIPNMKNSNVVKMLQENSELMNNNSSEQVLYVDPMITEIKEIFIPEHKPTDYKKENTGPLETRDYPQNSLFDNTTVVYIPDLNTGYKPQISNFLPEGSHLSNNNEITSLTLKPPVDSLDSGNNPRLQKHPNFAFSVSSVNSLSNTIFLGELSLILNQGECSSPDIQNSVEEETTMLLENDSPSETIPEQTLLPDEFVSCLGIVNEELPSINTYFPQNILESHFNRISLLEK

[2] = target: T2, Nluc-IL23R fusion protein (human, UniProt Q5VWK5 22-629); experiment: BRET displacement of TAMRA-labelled peptide, Nluc-IL23R membranes
T2 construct: range 22-629; Stably expressed in HEK293 cells; also called hIL-23R; human IL-23R fused to a Nanoluc luciferase enzyme; not shown: Nanoluc luciferase (Promega N1371 plasmid) at the N-terminus
T2 sequence (looked up): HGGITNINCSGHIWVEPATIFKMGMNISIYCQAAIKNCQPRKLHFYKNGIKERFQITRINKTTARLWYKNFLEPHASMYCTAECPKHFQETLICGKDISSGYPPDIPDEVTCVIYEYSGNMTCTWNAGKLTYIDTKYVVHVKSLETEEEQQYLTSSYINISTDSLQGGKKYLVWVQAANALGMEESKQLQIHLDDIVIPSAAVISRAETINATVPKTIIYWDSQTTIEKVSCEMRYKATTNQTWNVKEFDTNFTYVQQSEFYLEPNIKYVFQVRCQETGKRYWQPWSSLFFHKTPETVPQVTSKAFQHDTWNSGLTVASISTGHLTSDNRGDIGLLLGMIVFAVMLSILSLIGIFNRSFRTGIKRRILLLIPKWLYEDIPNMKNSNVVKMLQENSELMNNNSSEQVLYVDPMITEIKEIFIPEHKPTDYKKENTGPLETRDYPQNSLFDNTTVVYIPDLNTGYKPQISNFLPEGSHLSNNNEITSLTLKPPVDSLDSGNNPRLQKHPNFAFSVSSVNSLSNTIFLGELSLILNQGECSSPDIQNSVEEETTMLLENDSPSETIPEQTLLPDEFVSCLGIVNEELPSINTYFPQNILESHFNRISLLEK

[3] = target: T2, Nluc-IL23R fusion protein; experiment: as above; remark: listed apart in the source
Experimental: (§1) The plate was sealed with light impermeable plate seals, and incubated on a orbital shaker 400 rpm for 2 hours at room temperature. To determine the BRET ratio, the plate seal was removed and 25 μL of the Nanoluc substrate (Promega N1572) diluted 1:500 was added to each well and incubated for 1-2 minutes on an orbital shaker at 400 rpm. […] The BRET ratio was calculated as the fluorescence from the TAMRA/nanoluc bioluminescence. The IC₅₀ for each compound was determined by computer-aided curve fitting using a 4-parameter logistic (4PL) non-linear model.

[4] = target: T1, human IL-23R endogenously expressed on …; experiment: cell-based or functional assay; remark: listed apart in the source
[5] = target: T2, Nluc-IL23R fusion protein; experiment: BRET displacement of TAMRA-labelled peptide, Nluc-IL23R membranes; remark: listed apart in the source
Experimental: as §1

[6] = target: T1, human IL-23R endogenously expressed on …; experiment: cell-based or functional assay; remark: listed apart in the source

Binder: [3Amb]SCWQCW[2Nal]LER-NH2 (lactam N-10; linker 3-6 via CH2COCH2) [Compound 37]
- IC50 (pSTAT3) [1]: 44.6 nM
- Ki [2]: 9.87 nM
- Ki [3]: 9.86 nM
- IC50 (pSTAT3) [4]: 44.6 nM
- Ki [5]: 9.86 nM
- IC50 (pSTAT3) [6]: 44.6 nM
